Data reported in the DeepSol protein solubility set.

assay: soluble on expression in E. coli; label from the status in PepcDB or PDB records

Sequence	soluble on expression in E. coli
MPFTLGQRWISDTESELGLGTVVAVDARTVTLLFPSTGENRLYARSDSPVTRVMFNPGDTITSHDGWQMQVEEVKEENGLLTYIGTRLDTEESGVALREVFLDSKLVFSKPQDRLFAGQIDRMDRFALRYRARKYSSEQFRMPYSGLRGQRTSLIPHQLNIAHDVGRRHAPRVLLADEVGLGKTIEAGMILHQQLLSGAAERVLIIVPETLQHQWLVEMLRRFNLRFALFDDERYAEAQHDAYNPFDTEQLVICSLDFARRSKQRLEHLCEAEWDLLVVDEAHHLVWSEDAPSREYQAIEQLAEHVPGVLLLTATPEQLGMESHFARLRLLDPNRFHDFAQFVEEQKNYRPVADAVAMLLAGNKLSNDELNMLGEMIGEQDIEPLLQAANSDSEDAQSARQELVSMLMDRHGTSRVLFRNTRNGVKGFPKRELHTIKLPLPTQYQTAIKVSGIMGARKSAEDRARDMLYPERIYQEFEGDNATWWNFDPRVEWLMGYLTSHRSQKVLVICAKAATALQLEQVLREREGILAAVFHEGMSIIERDRAAAWFAEEDTGAQVLLCSEIGSEGRNFQFASHMVMFDLPFNPDLLEQRIGRLDRIGQAHDIQIHVPYLEKTAQSVLVRWYHEGLDAFEHTCPTGRTIYDSVYNDLINYLASPDQTEGFDDLIKSCREQHEALKAQLEQGRDRLLEIHSNGGEKAQALAESIEEQDDDTNLIAFAMNLFDIIGINQDDRGDNMIVLTPSDHMLVPDFPGLSEDGITITFDREVALAREDAQFITWEHPLIRNGLDLILSGDTGSSTISLLKNKALPVGTLLVELIYVVEAQAPKQLQLNRFLPPTPVRMLLDKNGNNLAAQVEFETFNRQLNAVNRHTGSKLVNAVQQDVHAILQLGEAQIEKSARALIDAARNEADEKLSAELSRLEALRAVNPNIRDDELTAIESNRQQVMESLDQAGWRLDALRLIVVTHQ	not soluble
SLKYVDEFRNGDYAKTLVRLIQKLTKKKINIMEICGSHTMAIFRYGIKDILPSNIRLISGPGCPVCVTSQGYIDTALELSLSREVIIATFGDMIRVPGTKTSLMKRKAEGADIKIVYSPMDALTLAENNPLKKVVFLSVGFETTTPITAITILEAKKRGVKNIFFLTSNKMVPPVMRTLVEDKELNITGFLLPGNVSAIIGKKPYEFLSSEYNVSGVVTGFEPLDILKGLKVLIDIINNNASVIVNEYKRVVRDEGNVTALRYIKEVFEVTDSTWRGIGNIEKSGYKINTEYEQFDAVKQFNINYKECDSSSECRCGDILKGKITPIECSLFKKACTPDHPVGSCMVSYEGVCAAYYKFLNT	soluble
MEALKIALLGGGTVGSAFYNLVLERAEELSAFGVVPRFLGVLVRDPRKPRAIPQELLRAEPFDLLEADLVVEAMGGVEAPLRLVLPALEAGIPLITANKALLAEAWESLRPFAEEGLIYHEASVMAGTPALSFLETLRGSELLELHGILNGTTLYILQEMEKGRTYAEALLEAQRLGYAEADPTLDVEGIDAAHKLTLLARLLVDPGFPFAEVEAQGIARLTPEVLQKAEARGERVRLVASLFGEGGRWRAAVAPRRLPQDHPLARARGNALWVRARPLGEAFVTGPGAGGGATASGLFADLLRFLSGAPGHLPAPRARPPLEEGSPWPGVE	soluble
MTEAGASIVVTVKNEGKNLRELLESIEKNDFTNFETVVVDDLSTDDTEDIVKSYRFTVYKRIACSRGEGRNIGVDLSRYGYILFTDGDAKVSEHWISGMVSALAAGNDAVIGNTLYTGKRRYMQERVKIFLEGIEVTAPSVNLAYRKDRFRQLGGFDPKFVTAEDIDLNIRAVKAGFRFATCDSCVVYAKVRENLASFLRQAYWNGYGRYQLEMKHPGITRNTRVRLGHNFFDFLHMVSGAAGYLSARISEGKQGRLEHHHHHH	soluble
MKRIITLTVVNRSGVLNRITGLFTKRHYNIESITVGHTETAGVSRITFVVHVEGENDVEQLTKQLNKQIDVLKVTDITNQSIVQRELALIKVVSAPSTRTEINGIIEPFRASVVDVSRDSIVVQVTGESNKIEALIELLKPYGIKEIARTGTTAFARGTSKRRHPIKQYLLYKTLEHHHHHH	soluble
MGSDKIHHHHHHMKVLNKPLEGVKVIDLTYFVAGPGTSKILADWGADVIKVEPSFGDPGRKTGATMTMPIDDYNNPFYSTYNSNKRGLSINLKSETGIEIMDKLLSEANVFVSSYRTGALKRLGLDYESLSKKHPHLIWGQINGFGDFGPAKDNAGFDTVAFWARSGAMLDIAEKDTSPINPPIAFGDATTSCSLSGGICAALYQQAKTGKGQKVMASLFGQAIWNASSLLASTQFSDEYPKTRKNAISPVINSYRCKDGKWIFLSILEHERYFEALCRLFGREDLIKEEKFASSVESKKNATELINILDGEFAKFTQNEMVEKLTAADIAHEKIQHVNDVVTDEQAIANNYIYEHTSKNGNKTMLASTPVKFGNIEVNMTCDAPLIGEHSDEILRELGYSDSDIEALIESGIVTMNKEACEIC	not soluble
MGSDKIHHHHHHMSDYYKTYDLKHVINASGKMTILGVSKVPEVAIQAQQFGDTHFFEIKDLVDKTGAYIAKKLGTEGAVVVNSASAGIAEAVAGIIGQGSKYHAYHPFSPRFTKREIILPKGQNVDYGTPEEVMIELGGGQVVEAGYANMCTPEHIEMMITEQTAAIFYVKSHHAVQKSMLTIPEALEVAHKHDLPLILDAAAEEDLKKYVDLGVDVVLFSGAKAIEGPASGLVFGKEPYIGWTKLQSLGIGRAMKIGKENILGFTTALIHYLDNGPESGDAMKARLHPFVAALNEVPHLNVKEVQDGAGRPIFRAAVTVEATSPNNAKQVTAELKAGDPAIYTREYRANEGIIEFDIRAVDQAEMDLIVTRLKEILA	not soluble
MLLEEVRAGDRLSGAAARGDVQEVRRLLHRELVHPDALNRFGKTALQVMMFGSTAIALELLKQGASPNVQDTSGTSPVHDAARTGFLDTLKVLVEHGADVNVPDGTGALPIHLAVQEGHTAVVSFLAAESDLHRRDARGLTPLELALQRGAQDLVDILQGHMVAPL	soluble
MAEARPDSLTRSRAAKPAGEGAAFSPLYRQIKELLVQSLDRGEWKPGELIPSEIDLAARFQVSQGTVRKAVDELAAEHLLLRRQGKGTFVATHHEARVRYRFLRLAPDEEGEGGRAESRILECRRLRAPAEIARALELRAGETVVTIRRQLSMNHMPTVIDDLWLPGTHFRGLTLELLTASKAPLYGLFESEFGVSMVRADEKLRAVAASPEIAPLLGVEPGRPLLQVDRISYTYGDRPMEVRRGLYLTDHYHYRNSLN	soluble
MIQDIKRSSAPAAPAPVTVLKMWPNEMRSQSLEENLDAKLEQFKKEHSPVKERGNCSKTRKISENQPPPSFEVVMAKIRGIQESLKNMEDQMNEEERGKEMPDSTENSFDFSKIWQYFDQTRIEEIRALLKKRQFPDSP	not soluble
MARFALVLHAHLPYVRAHGMWPFGEETLYEAMAETYLPLIRVLERLRAEGVEAPFTLGITPILAEQLADARIKEGFWAYAKDRLERAQGDYQRYRGTALEASARHQVAFWELTLDHFQRLSGDLVAAFRKAEEGGQVELITSNATHGYSPLLGYDEALWAQIKTGVSTYRRHFAKDPTGFWLPEMAYRPKGPWKPPVEGPPEGVRPGVDELLMRAGIRYTFVDAHLVQGGEPLSPYGEAALGPVESQEATYHVHELESGLRVLARNPETTLQVWSADYGYPGEGLYREFHRKDPLSGLHHWRVTHRKADLAEKAPYDPEAAFAKTEEHARHFVGLLERLAGRHPEGVILSPYDAELFGHWWYEGVAWLEAVLRLLAQNPKVRPVTAREAVQGPAVRTALPEGSWGRGGDHRVWLNEKTLDYWEKVYRAEGAMREAARRGVLPEGVLRQAMRELLLLEASDWPFLMETGQAEAYARERYEEHARAFFHLLKGASPEELRALEERDNPFPEADPRLYLFREA	soluble
MGINVQFRPMTIHDIDEVVQVERASFTSPWSRESFYNELMYNRYAKYIVMVYNGRIIGYGGMWLVIDEAHVTNVAVLPQFRGQKLGEALMRRLMDMARQHGAATMTLEVRVSNHVAQSLYRKLGFRNGGIRKRYYPDNFEDALVMWVKLR	not soluble
GPGSMTAGAPTTVAGEYPRPSASLHPSVDCSSLNRVPTATAAAPPPPSPRLSGYVMPSVVNPYSQGASQQPAMAHVSEPVNPASYLQQANAMGRWSYQQPPLQQPQYPTLDPVATRVAAIDAEEAAMAAEEMTMRAKLAELQVARKQQEEEQLYLSHGWAQMLEKEERYYTEPVIDLRPDIMAREQQCAMLHNHLQQVEAQAQHAQSQLQGTEYILRDAESFEQERRRVQDAFQEVERRRRECVARAERYFDVEAKRVVEGNKVIRKLDSQLREMTQRGPLAQLQDGNRHPFHRS	not soluble
MDCLNIEELTRIIIKEIRDYEEKEGVKSRRKIEVPINVSARHVHLSEEHMEALFGKGYTLTPIRDLMQPGEFAAKETVIIVGPKGILPSVRILGPARKRTQVEVSKTDCYTLGIEAQVRDSGNHEGTPGCIIVGPMGAVKLEEGVIVAMRHVHMPKNLAEKIGIKDKNLLKVEVGEERKLIFENVLARVSEKFVLEMHVDTDEANAAGIKNQAKGYILL	not soluble
MNTTDRQITFSALSCLLSYPDEEWRAELPDWKALIQEIGNRQIREKLLHFFETSASYSPEALIEHYVYTFDFGKKTNMYVTYFNSGEQRERGIELLHLKNTYEQSGFLPTEKELPDYLPLMLEFAAAAEIEAARSVFEKYLSNVRELASRLEKNDSIYAELLHVLLAALENIGVRESVEGAVQALEHHHHHH	not soluble
SLERYIDGRAVKADIFDHPVSYNINEITHTDDVHEALTASLNKYGNVDMAYMESLTDKSQSDLLEELRGRIFYNPLSKNYEIADRFISGNVMAKAEHIEEYLQSHPDNGEARISLEALRQSLPAPIPFEDLDFNFGERWIPAGVYSRYASWLFDTDVSVRYTASSDEYSIRADMTSPRIMNQYSVRSESRIFNGIALMRHAIHNTTPNITKTVLDKTGKEMKIRDPEVTLLANSKIDEIRNGFSDWLMEQSPEFKRKMADMYNRKFNCFVRPKYDGSHQSFPGLDLKGLGIPDLYPSQ	not soluble
MGSDKIHHHHHHMRILLIHQNFPGQFKHLAPALVANGHEVRTLTLRQDLPDQWQGVTVHRYRAQRNSSPTVHPWVGDFETKVIRGEACFRAALQLRNQGYQPDLILAHPGWGETLFLQDVWPAAKLAIYCEFYYRSAGSDVDFDPEFQRPQGEEDTACRLQLKNLIYTMQGDRVTAGIAPTHWQADQFPEPLRSKITVVHDGIDTEAIAPNPSATITLNNQLKLGRNDEVITFVNRNLEPYRGYHIFMRSLPEILQQRPKARVILVGGDDVSYGARPPAGTWKQIFLKEVADRLDLSRVHFVGKIPYNAFLSLLQVSSVHVYLTYPFVLSWSLIEAMSCGCAIVASDTAPVREVISDGETGRLVNFFDPAGLAATVSELLASPSARAKLGKKARLFAQNHYDLQRVCLPQQMQWVRSLA	not soluble
MGSDKIHHHHHHMGERTEDYRYVKTQHKIYTALIALLKKRAFDDITVRDLCQAAQVSRSGFYLHFVDKYDLVDSYGRDLVKMGMRLFYANRGNGLETLYTELLTLINEQGDLITLLLSRKGSVEIQNQIKNQLRQNAADNILPYYGIKNQSPVAQRYLIAMTTGAVLSILQEWLDSGKQESPAELVAVMQEQVMPTLQRSQFRL	not soluble
MPSVESFELDHNAVVAPYVRHCGVHKVGTDGVVNKFDIRFCQPNKQAMKPDTIHTLEHLLAFTIRSHAEKYDHFDIIDISPMGCQTGYYLVVSGETTSAEIVDLLEDTMKEAVEITEIPAANEKQCGQAKLHDLEGAKRLMRFWLSQDKEELLKVFG	soluble
AHHHHHHGSIDAHAHIEFFKKNQEEIIEEAKRKLRGVVDSITEYRKTHVWKSWELLKDYFDFIFPTLGYHPNEARRGNWEKVRKVEDFILKHQKEIFGIGEIGLDYYHAKTKAERDAQREIFVHFLELAKELNLPVVIHAREAEKEALEIINRYDIPSYFHSYTGSVEVAREIVDGGHILGISTGIVFIPEVREVAKNIEIEYLVVETDAPYMSPYKGIRNKPIFVEVAIEELAKIKGMDKTEVEAVTEVNTIKFFSLPL	soluble
